Test results as given in patent US12139520B2 (priority 2020, dated 2024).
Residue numbers refer to the chain shown, from its start. Numbered stars: 1 amine (or outer) side, 2 acyl side, 3 side chain; on linkers, the order of the positions; unused ones are H or OH. Bridge positions count the residues as written; N and C are the ends. Square brackets hold non-standard residues; d marks the D form. Side chains are listed from the residue outwards. Ends that are not written are not given here. * marks the point of attachment. C20 diacid = O=C(O)CCCCCCCCCCCCCCCCCCC(=O)*; γGlu = O=C(O)[C@H](CCC(=O)[*:2])N[*:1]; Hyp = O=C(O)[C@@H]1C[C@@H](O)CN1; AEEA = NCCOCCOCC(=O)O

T1: hAMY3R (human, UniProt P30988)
T1 sequence 1: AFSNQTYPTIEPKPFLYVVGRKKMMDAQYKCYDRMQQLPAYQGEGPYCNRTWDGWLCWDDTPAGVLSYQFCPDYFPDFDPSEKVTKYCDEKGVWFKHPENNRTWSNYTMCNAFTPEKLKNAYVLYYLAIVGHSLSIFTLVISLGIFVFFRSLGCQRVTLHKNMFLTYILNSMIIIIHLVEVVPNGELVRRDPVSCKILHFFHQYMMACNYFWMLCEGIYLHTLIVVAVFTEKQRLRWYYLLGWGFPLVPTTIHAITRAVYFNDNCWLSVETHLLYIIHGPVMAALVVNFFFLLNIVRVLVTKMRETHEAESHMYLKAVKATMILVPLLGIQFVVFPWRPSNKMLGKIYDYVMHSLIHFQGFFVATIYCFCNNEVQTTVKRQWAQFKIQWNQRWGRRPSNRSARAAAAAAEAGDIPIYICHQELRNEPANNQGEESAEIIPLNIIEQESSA
T1 sequence 2: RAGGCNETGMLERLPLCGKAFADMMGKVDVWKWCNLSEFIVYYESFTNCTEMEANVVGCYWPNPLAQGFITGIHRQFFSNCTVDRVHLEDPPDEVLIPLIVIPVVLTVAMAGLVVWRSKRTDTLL

B1: SEQ ID NO: 364 (peptide)
peptide: GCRFGTCTVQRLAHFLYQFTDKDKDNVAPRTNIGPQGY
B2: SEQ ID NO: 365 (peptide)
peptide: B1 peptide with N32K
B3: SEQ ID NO: 376 (peptide)
peptide: B1 peptide with N32K, P35S, Q36N
B4: SEQ ID NO: 366 (peptide)
peptide: B1 peptide with F15Q, L16I, G34S, Q36N
B5: SEQ ID NO: 381 (peptide)
peptide: B1 peptide with F15Q, L16I, Q36N
B6: SEQ ID NO: 377 (peptide)
peptide: B1 peptide with G5A, N32K, I33V
B7: SEQ ID NO: 382 (peptide)
peptide: B1 peptide with F15Q, L16I, T31S
B8: SEQ ID NO: 36 (peptide)
peptide: KCK([AEEA-AEEA-γGlu-C20 diacid])TATCTVQRLAEQIYQFTDKDKDNVAPPTNVGSNG[Hyp]-NH2
modifications: disulfide 2-7 (inferred); ends not checked
B9: SEQ ID NO: 353 (peptide)
peptide: GCRFGTCTVQWLAHQIYQFTDKDKDNVAPRSKVGPQG[Hyp]-NH2
modifications: disulfide 2-7 (inferred); ends not checked
B10: SEQ ID NO: 38 (peptide)
peptide: {C20 diacid-γGlu}-KCNTATCTVNRLAHQIYQFTDKDKDNVAPPTNVGSNG[Hyp]-NH2
modifications: disulfide 2-7 (inferred); ends not checked
B11: SEQ ID NO: 357 (peptide)
peptide: GCRTGTCTVQWLAHQIYQFTDKDKDNVAPRTKIGPQG[Hyp]-NH2
modifications: disulfide 2-7 (inferred); ends not checked
B12: SEQ ID NO: 372 (peptide)
peptide: {C20 diacid-γGlu}-GCRFGTCTVQRLANQIYQFTDKDKDNVAPRTNVGPQGY-NH2
modifications: disulfide 2-7 (inferred); ends not checked
B13: SEQ ID NO: 363 (peptide)
peptide: KCNFATCATQRLANFLVQFTDKDKDNVAPRSKIGPQGY
B14: SEQ ID NO: 361 (peptide)
peptide: KCNFATCTVQRLAHQIYQFTDKDKDNVAPRTKVGSNGY
B15: SEQ ID NO: 380 (peptide)
peptide: {C20 diacid-γGlu}-GCRFATCTVQRLAHQIYQFTDKDKDNVAPRTKVGPQGY-NH2
modifications: disulfide 2-7 (inferred); ends not checked
B16: SEQ ID NO: 371 (peptide)
peptide: GCRFGTCTVQRLAHQIYQFTDKDKDNVAPRTKISPNGY
B17: SEQ ID NO: 384 (peptide)
peptide: B16 peptide with T31S, I33V
B18: SEQ ID NO: 383 (peptide)
peptide: B16 peptide with T31S, K32N
B19: SEQ ID NO: 373 (peptide)
peptide: B16 peptide with T31S, K32N, I33V, S34G
B20: SEQ ID NO: 358 (peptide)
peptide: GCRTGTCTVQWLAHQIYQFTDKDKDNVAPRTNVSPNG[Hyp]-NH2
modifications: disulfide 2-7 (inferred); ends not checked
B21: SEQ ID NO: 352 (peptide)
peptide: GCRTGTCTVQWLAHQIYQFTDKDKDNVAPRSNIGPNG[Hyp]-NH2
modifications: disulfide 2-7 (inferred); ends not checked
B22: SEQ ID NO: 37 (peptide)
peptide: {C20 diacid-γGlu}-KCNTATCTVARLAHQIYQFTDKDKDNVAPPTNVGSNG[Hyp]-NH2
modifications: disulfide 2-7 (inferred); ends not checked
B23: SEQ ID NO: 354 (peptide)
peptide: GCRTGTCTVQWLAHQIYQFTDKDKDNVAPRTKVGPQGY
B24: SEQ ID NO: 374 (peptide)
peptide: B1 peptide with F15Q, L16I, T31S, I33V
B25: SEQ ID NO: 369 (peptide)
peptide: B1 peptide with N32K, I33V
B26: SEQ ID NO: 379 (peptide)
peptide: B1 peptide with F15Q, L16I
B27: SEQ ID NO: 368 (peptide)
peptide: B23 peptide with T4F, W11R
B28: SEQ ID NO: 385 (peptide)
peptide: B16 peptide with I33V
B29: SEQ ID NO: 375 (peptide)
peptide: B23 peptide with T4F, W11R, T31S
B30: SEQ ID NO: 367 (peptide)
peptide: B16 peptide with S34G
B31: SEQ ID NO: 362 (peptide)
peptide: B1 peptide with F15Q, L16I, I33V
B32: SEQ ID NO: 356 (peptide)
peptide: B23 peptide with K32N, V33I
B33: SEQ ID NO: 351 (peptide)
peptide: GCRIGTCTVQWLAHQIYQFTDKFKDNVAPRSKISPQT[Hyp]-NH2
modifications: disulfide 2-7 (inferred); ends not checked
B34: SEQ ID NO: 360 (peptide)
peptide: GCRTGTCTVQWLAHQIYQFTDKDKDNVAPRSNVSPNG[Hyp]-NH2
modifications: disulfide 2-7 (inferred); ends not checked
B35: SEQ ID NO: 370 (peptide)
peptide: {C20 diacid-γGlu}-KCNFATCTVQRLAHQIYQFTDKDKDNVAPRTEVGSNGY-NH2
modifications: disulfide 2-7 (inferred); ends not checked
B36: SEQ ID NO: 39 (peptide)
peptide: {C20 diacid-γGlu}-RCNTATCTVQRLAHQIYQFTDKDKDNVAPPTNVGSNG[Hyp]-NH2
modifications: disulfide 2-7 (inferred); ends not checked
B37: SEQ ID NO: 378 (peptide)
peptide: {C20 diacid-γGlu}-KCNFATCTVQRLAHQIYQFTDKDKDNVAPRTKVGSNGY-NH2
modifications: disulfide 2-7 (inferred); ends not checked
B38: SEQ ID NO: 359 (peptide)
peptide: GCRTGTCTVQWLAHQIYQFTDKDKDNVAPRSNIGPQG[Hyp]-NH2
modifications: disulfide 2-7 (inferred); ends not checked
B39: SEQ ID NO: 355 (peptide)
peptide: GCRTGTCTVQWLAHQIYQFTDKDKDNVAPRSKIGPNG[Hyp]-NH2
modifications: disulfide 2-7 (inferred); ends not checked

What follows are binders tested against hAM1R (human, UniProt Q16602) (assay: cell-based or functional assay).

Binder | hAM1R EC50 (cAMP) [nM]
B1 | 13.6
B2 | 1.21
B3 | 12
B4 | 12.1
B5 | 7.61
B6 | 0.243
B7 | 5.12
B8 | > 5000
B9 | 2920
B10 | > 5000
B11 | > 5000
B12 | 3.94
B13 | 1.77
B14 | 0.913
B15 | 0.162
B16 | 3.03
B17 | 1.09
B18 | 5.93
B19 | 7.71
B20 | > 5000

Binder | hAM1R EC50 (cAMP) [nM]
B21 | 1120
B22 | > 5000
B23 | > 5000
B24 | 12
B25 | 2.48
B26 | 0.458
B27 | 0.997
B28 | 7
B29 | 0.403
B30 | 0.563
B31 | 18.1
B32 | > 5000
B33 | > 5000
B34 | > 5000
B35 | 10.3
B36 | > 5000
B37 | 0.893
B38 | > 5000
B39 | > 5000

These binders were tested against T1, hAMY3R (assay: cell-based or functional assay).

Binder | hAMY3R EC50 (cAMP) [nM]
B1 | 0.01
B2 | 0.012
B3 | 0.022
B4 | 0.013
B5 | 0.032
B6 | 0.024
B7 | 0.034
B8 | 0.009
B9 | 0.027
B10 | 0.01
B11 | 0.115
B12 | 0.02
B13 | 0.01
B14 | 0.006
B15 | 0.031
B16 | 0.019
B17 | 0.036
B18 | 0.034
B19 | 0.02
B20 | 0.071

Binder | hAMY3R EC50 (cAMP) [nM]
B21 | 0.04
B22 | 0.01
B23 | 0.091
B24 | 0.021
B25 | 0.017
B26 | 0.029
B27 | 0.015
B28 | 0.036
B29 | 0.022
B30 | 0.014
B31 | 0.007
B32 | 0.079
B33 | 0.943
B34 | 0.165
B35 | 0.017
B36 | 0.01
B37 | 0.027
B38 | 0.145
B39 | 0.14
